# Assay results reported in patent US20240043489A1, “Cytokine Prodrugs Comprising a Cleavable Linker” (Trutino Biosciences Inc., priority 2020, published 2024).
# Several values for one entry are separate records, joined by “and”; a condition that tells them apart may be missing. Identical values can stand only once. Entries after “also recorded” stand apart in the source; their conditions may differ.
# B1: Construct B: SEQ ID NO 101: m IL2-2x(SG4)-MMPcs1-2x(G4S)-IL2Ralpha-mIgG1 Fc (protein)
# chain: APTSSSTSSSTAEAQQQQQQQQQQQQHLEQLLMDLQELLSRMENYRNLKLPRMLTFKFYLPKQATELKDLQCLEDELGPLRHVLDLTQSKSFQLEDAENFISNIRVTVVKLKGSDNTFECQFDDESATVVDFLRRWIAFCQSIISTSPQSGGGGSGGGGGPLGVRGGGGGSGGGGSELCLYDPPEVPNATFKALSYKNGTILNCECKRGFRRLKELVYMRCLGNSWSSNCQCTSNSHDKSRKQVTAQLEHQKEQQTTTDMQKPTQSMHQENLTGHCREPPPWKHEDSKRIYHFVEGQSVHYECIPGYKALQRGPAISICKMKCGKTGWTQPQLTCVDEREHHRFLASEESQGSRNSSPESETSCPITTTDFPQPTETTAMTETFVLTMEYKGCKPCICTVPEVSSVFIFPPKPKDVLTITLTPKVTCVVVDISKDDPEVQFSWFVDDVEVHTAQTQPREEQFNSTFRSVSELPIMHQDWLNGKEFKCRVNSAAFPAPIEKTISKTKGRPKAPQVYTIPPPKEQMAKDKVSLTCMITDFFPEDITVEWQWNGQPAENYKNTQPIMDTDGSYFVYSKLNVQKSNWEAGNTFTCSVLHEGLHNHHTEKSLSHSPGK
# Assays:
# [1] = tested on: EMT06; assay: In vivo efficacy in EMT06 breast syngeneic model; set-up: species or system mice; settings: EMT06, BALB/c, 20 mpk IV Q3D, D20
# Description: (§1) For the efficacy studies, C57BL/6 or BALB/c mice were subcutaneously inoculated with malignant cells and when the average tumor volume reached on average 90 mm^3, animals were randomized into 2 groups based on tumor volumes (n=10 mice per treatment group). Mice were dosed intravenously every 3 days (Q3D) at 20 mg/kg. Tumors, body weights and clinical observations were measured/collected twice a week for the duration of the study. Tumor volume is shown in FIGS. 10A-D, 11A, 12A, and 13B-C. […] Liver and kidney enzyme results corresponding to FIGS. 11A and 12A are shown in FIGS. 11B-D and 12B-D, respectively.
# [2] = tested on: B16F10 melanoma; assay: In vivo efficacy of retention linker IL-2 drugs in B16F10 syngeneic model (Example 17); set-up: species or system mice
# Description: In a first efficacy study, C57BL/6 mice were subcutaneously inoculated with B16F10 melanoma cells and when the average tumor volume reached on average 70-90 mm^3, animals were randomized into 5 groups based on tumor volumes (n=6 mice per treatment group). Mice were dosed intravenously every 3 days (Q3D) for a total of 5 doses according to following design:
# In a second efficacy study in the same model, C57BL/6 mice were subcutaneously inoculated with B16F10 melanoma cells and when the average tumor volume reached on average 70-90 mm^3, animals were randomized into 5 groups based on tumor volumes (n=6 mice per treatment group). Mice were dosed intravenously every 3 days (Q3D) for a total of 5 doses according to following design:
# On Day 20, mice received an additional dose of drug, animals were sacrificed 24 hrs later and tissues and blood (processed to serum) were collected and stored at −80C for further testing. […] This is most likely due to the higher levels of both circulating drugs in serum and resident drug in TME, which can exert prolonged anti-tumor activity even after an extended dosing holiday.
# [3] = tested on: tumor infiltrating immune cells; assay: Immune cell populations by immunohistochemistry in MC38 tumor samples; format: in vivo, mice; settings: MC38 tumors, 10 mg/kg IV Q3D for 21 days
# Description: The objective of this study is to evaluate immune targets in tumor samples by IHC. See below for details: • CD4+Foxp3 double immunofluorescence staining • CD8, CD25, CD3, CD4 and CD335 single IHC staining
# 7 tumor samples were selected from the systemic in vivo efficacy study and formalin-fixed paraffin embedded (FFPE) blocks were prepared following standard embedding process.
# FFPE blocks were sectioned with a manual rotary microtome (4 μm thickness/section) and optimized IHC assay protocols for all the antibodies were used. All stained sections were scanned with NanoZoomer-S60 Image system with 40× magnification. High resolution picture for whole section was generated and further analyzed.
# Scoring Method: All the images were analyzed with HALO™ Image Analysis platform. The whole slide image was analyzed and necrosis area was excluded. The total cells and IHC positive cells were counted. IHC score is presented as the ratio of the positive cell counts against the total cell numbers within whole section and shown in FIG. 8.
# [4] = tested on: CT-26; assay: In vivo efficacy in CT-26 colorectal syngeneic model; set-up: species or system mice; settings: CT-26, BALB/c, 20 mpk IV Q3D, D13
# Description: as §1
# [5] = In vitro serum stability of fusion protein (sandwich ELISA); format: in vitro ADME; settings: 37C up to 72 h; serum of naive and MC38 tumor bearing C57BL/6 mice
# Description: We developed an ELISA assay to detect and quantify fusion proteins comprising IL-2 and IL-2Rα moieties. Wells of a 96-well plate are coated overnight with 100 uL of a rat anti-mouse IL-2 monoclonal antibody (JES6-1A12; ThermoFisher) at […] in PBS. After washing, wells are blocked with TBS/0.05% Tween 20/1% BSA, then fusion proteins and/or unknown biological samples are added for 1 hr at room temperature. After washing, an anti-mouse IL-2Rα biotin-labelled detection antibody (BAF2438, R&D systems) is added and binding is detected using Ultra Strepavidin HRP (ThermoFisher). The ELISA plate was developed by adding the chromogenic tetramethylbenzidine substrate (Ultra TMB, ThermoFisher). The reaction is stopped by addition of 0.5M H2SO4 and the absorbance is read at 450-650 nm.
# Construct B was incubated at 37C for up to 72 h with serum collected from 8 weeks old female C57BL/6 naive and MC38 tumor bearing mice respectively (n=2 per serum type, tumor volume >3000 mm3 at time of collection), in order to examine both non-specific cleavage as well as MMP-specific off-target cleavage. Samples were collected at 0 h, 4 h, 8 h, 24 h, 48 h and 72 h and the intact non-MMP cleaved fusion protein was quantified using an in-house developed sandwich ELISA.
# [6] = tested on: RM-1; assay: In vivo efficacy in RM-1 prostate cancer model
# Description: as §1
# [7] = tested on: CTLL-2 cells; assay: CTLL-2 proliferation assay (MTT); format: cell-based
# Description: Recombinant MMP9 and/or MMP2 (R&D Systems) was first activated with p-aminophenylmercuric acetate and this activated protease or equivalent amount of activating solution without the protease was used to digest or mock digest the fusion protein for 1 hr, 2 hr, 4 hr and overnight (18-22 hr) at 37 C. Cleavage assays are set up in TCNB buffer: 50 mM Tris, 10 mM CaCl2), 150 mM NaCl, 0.05% Brij-35 (w/v), pH 7.5. Digested protein was aliquoted and stored at −80° C. prior to testing. Aliquots of digests were subsequently analyzed by SDS-PAGE followed by Western blotting to evaluate the extent of cleavage. Digests were also assessed in functional assays such as CTLL-2 proliferation and HEK-Blue Interleukin reporter assays. As shown in FIGS. 2A-E, essentially complete cleavage by MMP9 protease of the fusion proteins with functional site is seen after overnight incubation. In contrast, proteins containing a scrambled MMP cleavage site are not cut (FIG. 2E).
# IL-2 activity was measured using either CTLL-2 cells (ATCC) or the reporter cell line HEK Blue IL2 (Invivogen, San Diego). In brief, for the CTLL-2 assay a titration of untreated and digested samples is added to 40 000 CTLL-2 cells per well in 100 ul medium in a 96-well plate and incubated at 37C in 5% CO2 for 18-22 hr. At the end of this period, 50ug/well Thiazolyl Blue Tetrazolium Bromide (MTT) (Sigma-Aldrich) was added and the plate was incubated for 5 hr at 37C in 5% CO2. Cells were lysed with 100 µl/well 10% SDS (Sigma) acidified with HCl, incubated at 37C for 4 hr, and absorbance was read at 570 nm. Recombinant human or mouse IL-2 (Peprotech and R&D systems respectively) was used as a positive control. FIGS. 3A-B, 3K-L and 3N-P show examples of untreated and digested fusion proteins evaluated in CTLL-2 proliferation assay.
molecule,measurement,setting,value
B1,Max TGI %,[1],43%
same,TGI (%) D 15,"[2]; 10 mg/kg IV Q3D, 5 doses",27% and 27.43%
same,efficacy after a dosing holiday of 7 days,"[2]; 10 mg/kg, Day 20",diminished efficacy
same,TGI (%) D 20,"[2]; 10 mg/kg, 7 days following the fifth dose",14.02%
same,TGI (%) D 13,"[2]; 20 mg/kg IV Q3D, 5 doses",61% and 61.43%
same,TGI (%) D 13,"[2]; 40 mg/kg IV Q3D, 5 doses",58.44%
same,TGI,[2]; Construct B treated groups regardless of dose (20 and 40 mg/kg),~60%
same,tumor infiltrating immune cells (IHC score) vs vehicle,[3],Significantly more immune cells of all tested types; also recorded: significant increase in tumor infiltrating immune cells
same,Max TGI %,[4],46%
same,stability of intact fusion protein in serum,[5],stable
same,"signs of toxicity (body weight loss, liver and/or kidney enzymes, clinical observations)","[6]; RM-1 model, 20 mg/kg IV Q3D",no signs of toxicity
same,Max TGI %,"[6]; RM_1, C57BL/6, 20 mpk IV Q3D, D10",58%
same,"CTLL-2 cell proliferation, MMP-9 treated construct",[7]; cleaved by MMP-9,stimulates CTLL-2 cell proliferation in a dose dependent manner
same,"CTLL-2 cell proliferation, uncleaved construct",[7]; uncleaved,minimally stimulatory
